Positions count from the first letter of the chain named. Numbers in names are those of the source.
B1: K1028R: dominant negative human PASK, conserved lysine in ATP-binding region mutated to arginine (protein, UniProt Q96RG2 1-1323, looked up, variant K1028R)
PAS domain-containing …: MEDGGLTAFEEDQRCLSQSLPLPVSAEGPAAQTTAEPSRSFSSAHRHLSRRNGLSRLCQSRTALSEDRWSSYCLSSLAAQNICTSKLHCPAAPEHTDPSEPRGSVSCCSLLRGLSSGWSSPLLPAPVCNPNKAIFTVDAKTTEILVANDKACGLLGYSSQDLIGQKLTQFFLRSDSDVVEALSEEHMEADGHAAVVFGTVVDIISRSGEKIPVSVWMKRMRQERRLCCVVVLEPVERVSTWVAFQSDGTVTSCDSLFAHLHGYVSGEDVAGQHITDLIPSVQLPPSGQHIPKNLKIQRSVGRARDGTTFPLSLKLKSQPSSEEATTGEAAPVSGYRASVWVFCTISGLITLLPDGTIHGINHSFALTLFGYGKTELLGKNITFLIPGFYSYMDLAYNSSLQLPDLASCLDVGNESGCGERTLDPWQGQDPAEGGQDPRINVVLAGGHVVPRDEIRKLMESQDIFTGTQTELIAGGQLLSCLSPQPAPGVDNVPEGSLPVHGEQALPKDQQITALGREEPVAIESPGQDLLGESRSEPVDVKPFASCEDSEAPVPAEDGGSDAGMCGLCQKAQLERMGVSGPSGSDLWAGAAVAKPQAKGQLAGGSLLMHCPCYGSEWGLWWRSQDLAPSPSGMAGLSFGTPTLDEPWLGVENDREELQTCLIKEQLSQLSLAGALDVPHAELVPTECQAVTAPVSSCDLGGRDLCGGCTGSSSACYALATDLPGGLEAVEAQEVDVNSFSWNLKELFFSDQTDQTSSNCSCATSELRETPSSLAVGSDPDVGSLQEQGSCVLDDRELLLLTGTCVDLGQGRRFRESCVGHDPTEPLEVCLVSSEHYAASDRESPGHVPSTLDAGPEDTCPSAEEPRLNVQVTSTPVIVMRGAAGLQREIQEGAYSGSCYHRDGLRLSIQFEVRRVELQGPTPLFCCWLVKDLLHSQRDSAARTRLFLASLPGSTHSTAAELTGPSLVEVLRARPWFEEPPKAVELEGLAACEGEYSQKYSTMSPLGSGAFGFVWTAVDKEKNKEVVVRFIKKEKVLEDCWIEDPKLGKVTLEIAILSRVEHANIIKVLDIFENQGFFQLVMEKHGSGLDLFAFIDRHPRLDEPLASYIFRQLVSAVGYLRLKDIIHRDIKDENIVIAEDFTIKLIDFGSAAYLERGKLFYTFCGTIEYCAPEVLMGNPYRGPELEMWSLGVTLYTLVFEENPFCELEETVEAAIHPPYLVSKELMSLVSGLLQPVPERRTTLEKLVTDPWVTQPVNLADYTWEEVFRVNKPESGVLSAASLEMGNRSLSDVAQAQELCGGPVPGEAPNGQGCLHPGDPRLLTS
B2: S1273-1289A: PASK mutant, all five serines simultaneously changed to alanine (protein)
chain: B1 PAS domain-containing … with Y899H, R1028K, F1266C, S1273A, S1277A, S1280A, S1287A, S1289A
modifications: left off: small tags and cut ends
notes: PASK mutant, all five serines simultaneously changed to alanine
B3: wildtype: His6-tagged human PASK enzyme expressed in baculovirus-infected Sf-9 cells (protein)
chain: B1 PAS domain-containing … with Y899H, R1028K, F1266C
modifications: left off: small tags and cut ends
notes: His6-tagged human PASK enzyme expressed in baculovirus-infected Sf-9 cells
B4: S1149A: PASK mutant, serine residue 1149 changed to alanine (protein)
chain: B1 PAS domain-containing … with Y899H, R1028K, S1149A, F1266C
modifications: left off: small tags and cut ends
notes: PASK mutant, serine residue 1149 changed to alanine
B5: S1273,77,80A: PASK mutant, serine residues 1273, 1277 and 1280 changed to alanine (protein)
chain: B1 PAS domain-containing … with Y899H, R1028K, F1266C, S1273A, S1277A, S1280A
modifications: left off: small tags and cut ends
notes: PASK mutant, serine residues 1273, 1277 and 1280 changed to alanine
B6: T1165A: PASK mutant, threonine residue 1165 changed to alanine (protein, UniProt Q96RG2 1-1323, looked up, variant T1165A)
PAS domain-containing …: B1 PAS domain-containing … with R1028K, T1165A
B7: S1287,89A: PASK mutant, serine residues 1287 and 1289 changed to alanine (protein)
chain: B1 PAS domain-containing … with Y899H, R1028K, F1266C, S1287A, S1289A
modifications: left off: small tags and cut ends
notes: PASK mutant, serine residues 1287 and 1289 changed to alanine
B8: PASK ΔN: truncated human PASK variant lacking both PAS domains, 948 amino-terminal residues removed, His6 tag (protein)
chain: SLPGSTHSTAAELTGPSLVEVLRARPWFEEPPKAVELEGLAACEGEYSQKYSTMSPLGSGAFGFVWTAVDKEKNKEVVVKFIKKEKVLEDCWIEDPKLGKVTLEIAILSRVEHANIIKVLDIFENQGFFQLVMEKHGSGLDLFAFIDRHPRLDEPLASYIFRQLVSAVGYLRLKDIIHRDIKDENIVIAEDFTIKLIDFGSAAYLERGKLFYTFCGTIEYCAPEVLMGNPYRGPELEMWSLGVTLYTLVFEENPFCELEETVEAAIHPPYLVSKELMSLVSGLLQPVPERRTTLEKLVTDPWVTQPVNLADYTWEEVCRVNKPESGVLSAASLEMGNRSLSDVAQAQELCGGPVPGEAPNGQGCLHPGDPRLLTS
modifications: left off: small tags and cut ends
notes: truncated human PASK variant lacking both PAS domains, 948 amino-terminal residues removed, His6 tag

Experiments:
Assay in all cases: PASK kinase assay, 32P incorporation into AMARA peptide substrate
[1] = test system: AMARA peptide; type: biochemical, human; details: for Catalytic activity: baculovirus-expressed enzyme variant; for Vmax / Km: Pre-phosphorylated enzyme; for Vmax: peptide substrate; for Km: peptide substrate 0.06–1 mM
Method: (§1) Biochemical properties of the Pask enzyme. A recombinant baculovirus was engineered to overexpress human PASK enzyme in cultured insect cells. The enzyme was expressed as a fusion with a His6 tag at its amino terminus such that the recombinant polypeptide could be purified by Ni-affinity chromatography. Routine enzyme preparations were harvested from 0.8 liter of cultured Sf-9 cells. Cells were lysed by dounce homogenization in 50 mM Tris-HCl, pH 8.0, 100 mM NaCl, 0.04% β-mercaptoethanol (“lysis buffer”) and spun at 100,000×G for one hour to remove insoluble debris. Soluble material (˜50 ml) was then applied to a 3 ml bed volume of Ni-affinity resin. Following application and 50× column volume wash, bound material was eluted with storage buffer (50 mM HEPES, pH 7.4, 100 mM NaCl, 1 mM DTT, 1 mM EDTA) supplemented with 250 mM imidazole. Eluted material was sequentially subjected to Mono-Q, anion-exchange chromatography, and eluted with increasing NaCl concentration. Fractions were evaluated by SDS-PAGE to identify PASK enriched fractions, pooled and dialyzed against storage buffer supplemented with 10% glycerol. Typical enzyme preparations yield 0.5 mg of intact PASK enzyme judged to be greater than 95% pure by visual inspection of Coomassie-stained SDS-PAGE gels.
(§2) Kinetic data were used to characterize the activities of PASK enzyme samples derived without modification from baculovirus and following pre-phosphorylation in the presence of ATP. Enzyme activity was monitored using a synthetic substrate bearing the sequence NH2-[…]-CO2H (AMARA peptide, SEQ ID NO:9). The serine residue in this peptide is known to be phosphorylated by both AMPK and Snf1 [2], both of which are exceedingly similar in primary amino acid sequence to the catalytic domain of PASK. The three arginine residues located at the carboxyl terminus of the AMARA peptide allow avid binding to phosphocellulose paper, thereby facilitating quantitation of ^32P incorporation catalyzed by PASK from [γ-^32P]ATP. […] Moreover, lambda phosphatase treatment generated an enzyme which had 7-fold lower activity than the unmodified enzyme, and this treatment was fully reversible by allowing the enzyme to autophosphorylate in the presence of ATP.
(§3) PASK concentrations (0.5–2 μg/ml) were determined to have linear rates with respect to protein concentration and time. Kinetic constants were determined using peptide substrate concentrations between 0.06–1 mM. The data were fit to a non-linear Michaelis-Menten equation using the GraphPad Prism 2.0 program. Vmax values given are μmol/min/mg. NS indicates an SE less than 0.05.

[2] = target: T1, AMARA peptide (Homo sapiens, UniProt Q96RG2, F1266C/Y899H); type: biochemical; details: Untreated enzyme
T1 construct: Compounds are checked for effects on both full length and truncated versions of PASK; His6 (N); made in house; host or cells: baculovirus-infected Sf-9 insect cells
T1 sequence (Q96RG2 whole entry Y899H/F1266C, the tested form may be a part): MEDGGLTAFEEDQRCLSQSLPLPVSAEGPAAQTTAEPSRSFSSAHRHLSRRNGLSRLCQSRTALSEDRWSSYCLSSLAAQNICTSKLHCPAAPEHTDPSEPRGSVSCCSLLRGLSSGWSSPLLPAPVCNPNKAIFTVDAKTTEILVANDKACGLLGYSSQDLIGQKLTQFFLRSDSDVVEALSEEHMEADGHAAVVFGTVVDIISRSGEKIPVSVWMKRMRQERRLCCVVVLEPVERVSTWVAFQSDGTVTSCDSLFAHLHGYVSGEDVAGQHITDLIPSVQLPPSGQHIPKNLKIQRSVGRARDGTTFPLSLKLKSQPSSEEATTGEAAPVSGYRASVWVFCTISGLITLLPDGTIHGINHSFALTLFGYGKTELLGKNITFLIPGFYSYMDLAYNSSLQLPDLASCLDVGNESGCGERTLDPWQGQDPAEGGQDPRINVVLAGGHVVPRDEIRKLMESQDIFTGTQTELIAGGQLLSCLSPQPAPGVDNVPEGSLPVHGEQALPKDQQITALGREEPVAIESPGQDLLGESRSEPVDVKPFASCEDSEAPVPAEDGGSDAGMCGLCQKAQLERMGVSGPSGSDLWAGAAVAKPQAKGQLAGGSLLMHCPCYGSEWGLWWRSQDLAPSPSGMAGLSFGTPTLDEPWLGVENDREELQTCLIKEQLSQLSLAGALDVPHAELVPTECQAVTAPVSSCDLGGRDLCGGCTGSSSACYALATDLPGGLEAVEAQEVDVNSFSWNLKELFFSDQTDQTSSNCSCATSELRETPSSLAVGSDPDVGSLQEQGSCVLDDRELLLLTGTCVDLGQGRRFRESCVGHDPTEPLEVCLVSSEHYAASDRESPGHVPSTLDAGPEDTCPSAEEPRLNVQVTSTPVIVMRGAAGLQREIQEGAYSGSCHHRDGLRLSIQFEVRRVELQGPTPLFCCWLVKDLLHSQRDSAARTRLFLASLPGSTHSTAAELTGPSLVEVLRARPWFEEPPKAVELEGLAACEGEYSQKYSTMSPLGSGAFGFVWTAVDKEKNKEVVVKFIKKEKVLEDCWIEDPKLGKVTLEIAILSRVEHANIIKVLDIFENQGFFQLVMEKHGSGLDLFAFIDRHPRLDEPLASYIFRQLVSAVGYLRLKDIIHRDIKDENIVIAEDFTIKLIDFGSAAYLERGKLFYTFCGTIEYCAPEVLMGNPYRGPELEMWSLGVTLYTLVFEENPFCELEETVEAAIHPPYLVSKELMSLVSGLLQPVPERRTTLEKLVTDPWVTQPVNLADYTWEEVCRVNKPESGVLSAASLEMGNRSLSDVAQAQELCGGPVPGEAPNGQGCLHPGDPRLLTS
Method: as §1, §2, §3

[3] = target: T2, AMARA peptide (Homo sapiens, UniProt Q96RG2, F1266C); type: biochemical; details: truncated variant vs native enzyme
T2 construct: Compounds are checked for effects on both full length and truncated versions of PASK; His6 (N); made in house; host or cells: baculovirus-infected Sf-9 insect cells
Method: as §1, §2, §3

| Molecule | Catalytic activity [1] | Vmax [1] | Km [1] | Vmax ([2]; peptide substrate) | Km ([2]; peptide substrate 0.06–1 mM) | catalytic rate constant (Vmax) higher than the native enzyme [3] |
| --- | --- | --- | --- | --- | --- | --- |
| B1 | completely inactive | – | – | – | – | – |
| B2 | – | 0.1 µmol/min/mg | 200 µM | – | – | – |
| B3 | – | 0.2 µmol/min/mg | 200 µM | 0.1 µmol/min/mg | 1300 µM | – |
| B4 | – | 0.1 µmol/min/mg | 600 µM | – | – | – |
| B5 | – | 0.4 µmol/min/mg | 300 µM | – | – | – |
| B6 | Catalytically inactive | – | – | – | – | – |
| B7 | – | 0.1 µmol/min/mg | 200 µM | – | – | – |
| B8 | – | 2.8 µmol/min/mg | 300 µM | – | – | 18 fold |
